According to article doi:10.1101/2020.03.30.016154 (bioRxiv, 2020):

Biological target: the molecule itself
Test: cryo-EM structure

B1: full-length mouse serotonin (3A) receptor (5-HT3AR) (receptor, UniProt P23979-2 24-483, looked up)
chain: SRRRATQARDTTQPALLRLSDHLLANYKKGVRPVRDWRKPTTVSIDVIMYAILNVDEKNQVLTTYIWYRQYWTDEFLQWTPEDFDNVTKLSIPTDSIWVPDILINEFVDVGKSPNIPYVYVHHRGEVQNYKPLQLVTACSLDIYNFPFDVQNCSLTFTSWLHTIQDINITLWRSPEEVRSDKSIFINQGEWELLEVFPQFKEFSIDISNSYAEMKFYVIIRRRPLFYAVSLLLPSIFLMVVDIVGFCLPPDSGERVSFKITLLLGYSVFLIIVSDTLPATAIGTPLIGVYFVVCMALLVISLAETIFIVRLVHKQDLQRPVPDWLRHLVLDRIAWILCLGEQPMAHRPPATFQANKTDDCSAMGNHCSHVGGPQDLEKTPRGRGSPLPPPREASLAVRGLLQELSSIRHFLEKRDEMREVARDWLRVGYVLDRLLFRIYLLAVLAYSITLVTLWSIWHYS
stoichiometry N: 5
